The labels stand for the following.
B1: FJ1427_P035MP04A09 (VHH)
VHH: QVQLVESGGGLVQAGGSLRLSCAASGRTFGAVAVGWFRQVPGKEREFVAAINRNGSATKYADSAKGRFTISRDNAESPVYLQMNSLKPEDTAIYYCAADSLPYGRPYYFQTSAGEYDYWGQGTQVTVSS
B2: FJ1427_P035MP04C01 (VHH)
VHH: QVQLVESGGGLVQAGGSLTLSCAASGRTFSTDVVGWFRQAPGKEREFVASISRSGDGIYYDDSVKGRFTISRNNAWNTVNLQMNNLKVEDTAVYYCAAGDGWSTYDYWGQGTQVTVSS
B3: FJ1427_P035MP04B03 (VHH)
VHH: QVQLQESGGGLVQAGESLRLSCAASGPTASRVAVAWFRQVPGKEREFVAVVNRPGTMTKYADSVKGRFTISRDSAKNTVYLQMNSLKPEDTAVYYCAADSVPYGRPYYFQTSAGNYDYWGQGTQVTVSS
B4: FJ1427_P035MP04A04 (VHH)
VHH: QVQLVESGGGLVQAGESLRLSCAASGPTASRVAVAWFRQVPGKEREFVAVVNRPGTMTKYADSVKGRFTISRDSAKNTVYLQMNSLKPEDTAVYYCAADSVPYGRPYYFQTSAGNYDYWGQGTQVTVSS
B5: FJ1427_P035MP04G09 (VHH)
VHH: QVQLQESGGGLVQAGGSLRLSCAASGPTFSRVAVGWFRQVPGKEREFVAAVNRPATMTKYADSVKGRFTISRDNAKNTVDLQMNSMKPEDTAVYYCAADSVPYGRPYYFQTSAGEYDYWGQGTQVTVSS
B6: FJ1427_P035MP04D08 (VHH)
VHH: QVQLVESGGGLVQAGESLRLSCAASGPTASRVAVAWFRQVPGKEREFVAVVNRPGTMTKYADSVKGRFTISRDSAKNTVYLQMNSLKPEDTAVYYCAADSVPYGRPYYFQTSAGNYDYWGQGTQVTVSS
B7: FJ1427_P035MP04H08 (VHH)
VHH: EVQLVESGGGLVQAGESLRLSCAASGPTASRVAVAWFRQVPGKEREFVAVVNRPGTMTKYADSVKGRFTISRDSAKNTVYLQMNSLKPEDTAVYYCAADSVPYGRPYYFQTSAGNYDYWGQGTQVTVSS
B8: FJ1427_P035MP04A11 (VHH)
VHH: QVQLVESGGGLVQAGESLRLSCAASGPTASRVAVAWFRQVPGKEREFVAVVNRPGTMTKYADSVKGRFTISRDSAKNTVYLQMNSLKPEDTAVYYCAADSVPYGRPYYFQTSAGNYDYWGQGTQVTVSS
B9: 35-MP07G01 (VHH)
VHH: QVQLQESGGGLVQGGGSLRLSCAASGGIFSSYAMGWFRQAPGKEREFVAAISRSGRSTNYADSVKGRFTISRDNAKSTVYLQMNSLKPEETAVYYCAAGRYYNSAYDPSPGDFGSWGHGTQVTVSS
B10: FJ1427_P035MP04F02 (VHH)
VHH: QLQLVESGGGLVQAGGSLTLSCAASGRTFSRDVVGWFRQAPGKEREFVASISRSGDGTFYTDSVKGRFTISSRDNAKNTVLLQMNSLKVEDTAVYYCAAGDGWSTYDYWGQGTQVTVSS
B11: FJ1427_P035MP04B02 (VHH)
VHH: QVQLVESGGGWVQVGESLRLSCAPSGRTFVSGIMGWFRQTPGKEREFVARIILNNNSTRYTDSVKGRFTISRDSAKNTMYLQMNTLRPEDTAVYYCAARDRYGSGNSLSPSAYDYWGQGTQVTVSS
B12: FJ1427_P035MP04G07 (VHH)
VHH: QVQLVESGGGWVQVGESLRLSCAPSGRTFVSGIMGWFRQAPGKEREFVARIILNNNSTRYTDSVKGRFTISRDSAKNTMYLQMNTLRPEDTAVYYCAARDRYGSGNSLSPSAYDYWGQGTQVTVSS
B13: FJ1427_P035MP04C05 (VHH)
VHH: QVQLVESGGGWVQVGESLRLSCAPSGRTFVSGIMGWFRQAPGKEREFVARIILNNNSTRYTDSVKGRFTISRDSAKDTMYLQMNTLRPEDTAVYYCAARDRYGSGNSLSPSAYDYWGQGTQVTVSS
B14: FJ1427_P035MP04E04 (VHH)
VHH: EVQLVESGGGWVQVGESLRLSCVPSGRTFVSGIMGWFRQAPGKEREFVARIILNSNSTRYTDSVKGRFTISRDSAKNTMYLQMNSLRPEDTAVYYCAARDRYGSGNSLSPSAYDYWGQGTQVTVSS
B15: FJ1427_P035MP04B10 (VHH)
VHH: EVQLVESGGGWVQVGESLRLSCAPSGRTFVSGIMGWFRQAPGKEREFVARIILNNNSTRYIDSVKGRFTISRDSAKNTMYLQMDSLRPEDTAVYYCAARDRYGSGNSLSPSAYDYWGQGTQVTVSL
B16: FJ1427_P035MP04G03 (VHH)
VHH: EVQLVESGGGWVQVGESLRLSCAPSGRTFVSGIMGWFRQAPGKEREFVARIILNNNSTRYTDSVKGRFTISRDSAKNTMYLQMDSLRPEDTAVYYCAARDRYGSGNSLSPSAYDYWGQGTQVTVSS
B17: FJ1427_P035MP04E02 (VHH)
VHH: QVQLVESGGGWVQVGESLRLSCAPSGRTFVSGIMGWFRQTPGKEREFVARIILNNNSTRYTDSVKGRFTISRDSAKNTMYLQMNTLRPEDTAVYYCAARDRYGSGNSLSPSAYDYWGQGTQVTVSS
B18: FJ1427_P035MP04B06 (VHH)
VHH: QLQLVESGGGWVQVGESLRLSCVPSGRTFVSGIMGWFRQAPGKEREFVARIILNNNSTRYTDSVKGRFTISRDSAKNTMYLQMNTLRPEDTAVYYCAARDRYGSGNSLSPSAYDYWGQGTQVTVSS
B19: FJ1427_P035MP04A03 (VHH)
VHH: EVQLVESGGGWVQVGESLRLSCAPSGRTFVSGIMGWFRQTPGKEREFVARIILNNNSTRYTDSVKGRFTISRDSAKNTMYLQMNTLRPEDTAVYYCAARDRYGSGNSLSPSAYDYWGQGTQVTVSS
B20: FJ1427_P035MP04B07 (VHH)
VHH: EVQLVESGGGWVQVGESLRLSCAPSGRTFVSGIMGWFRQTPGKEREFVARIILNNNSTRYTDSVKGRFTISRDSAKNTLYLQMNTLRPEDTAVYYCAARDRYGSGNSLSPSAYDYWGQGTQVTVSS
B21: FJ1427_P035MP04G10 (VHH)
VHH: QVQLVESGGGWVQVGESLRLSCAPSGRTFVSGIMGWFRQAPGKEREFVARIILNSNSTRYTDSAKGRFTISRDSAKNTMYLQMDSLRPEDTAVYYCAARDRYGSGNSLSPSAYDYWGQGTQVTVSS
B22: FJ1427_P035MP04G08 (VHH)
VHH: QVQLVESGGGWVQVGESLRLSCAPSGRTFVSGIMGWFRQAPGKEREFVARIILNNNSTRYTDSVKGRFTISRDSAKNTMYLQMDSLRPEDTAVYYCAARDRYGSGNSLSPSAYDYWGQGTQVTVSS
B23: FJ1427_P035MP04F10 (VHH)
VHH: QLQLVESGGGWVQVGESLRLSCVPSGRTFVSGIMGWFRQAPGKEREFVARIISNNNSTRYTDSVKGRFTISRDSAKNTMYLQMNTLRPEDTAVYYCAARDRYGSGNSLSPSAYDYWGQGTQVTVSS
B24: FJ1427_P035MP04A10 (VHH)
VHH: EVQLVESGGGWVQVGESLRLSCAPSGRTFVSGIMGWFRQAPGKEREFVARIILNNNSTRYTDSVKGRFTISRDSAKNTMYLQMNTLRPEDTAVYYCAARDRYGSGNSLSPSAYDYWGQGTQVTVSS
B25: FJ1427_P035MP04H09 (VHH)
VHH: EVQLVESGGGWVQVGESLRLSCAPSGRTFVSGIMGWFRQAPGKEREFVARIILNNNSTRYTDSVKGRFTISRDSAKNTMYLQMNTLRPEDTAVYYCAARDRYGSGNSLSPSAYDYWGQGTQVTVSS
B26: FJ1427_P035MP04H10 (VHH)
VHH: QVQLVESGGGLVQAGGSLRLSCAPSGRTFVSGIMGWFRQAPGKEREFVARIILNNNSTRYIDSVKGRFTISRDSAKNTMYLQMDSLRPEDTAVYYCAARDRYGSGNSLSPSAYDYWGQGTQVTVSS
B27: FJ1427_P035MP04C10 (VHH)
VHH: QVQLQESGGGWVQVGESLRLSCVPSGRTFVSGIMGWFRQAPGKEREFVARIILNNNSTRYTDSVKGRFTISRDSAKNTMYLQMNTLRPEDTAVYYCAARDRYGSGNSLSPSAYDYWGQGTQVTVSS
B28: FJ1427_P035MP04F09 (VHH)
VHH: QVQLVESGGGWVQVGESLRLSCAPSGRTFVRGIMGWFRQAPGKEREFVARIILNNNSTRYTDSVKGRFTISRDSAKNTMWLQMDSLRPEDTAVYYCAARDRYGSGNSLSPSAYDYWGQGTQVTVSS
B29: FJ1427_P035MP04A07 (VHH)
VHH: QLQLVESGGGWVQVGESLRLSCAPSGRTFVSGIMGWFRQAPGKEREFVARIILNNNSTRYIDSVKGRFTISRDSAKNTMYLQMDSLRPEDTAVYYCAARDRYGSGNSLSPSAYDYWGQGTQVTVSS
B30: FJ1427_P035MP04D09 (VHH)
VHH: QVQLVESGGGWVQVGESLRLSCAPSGRTFVRGIMGWFRQAPGKEREFVARIILNSNSTRYIDSVKGRFTISRDSAKNTMYLQMNSLRPEDTAVYYCAARDRYGSGNSLSPSAYDYWGQGTQVTVSS

For the assay, the target named is T1, mouse IL-2Rγ (mouse) (UniProt P34902).
T1 sequence (looked up): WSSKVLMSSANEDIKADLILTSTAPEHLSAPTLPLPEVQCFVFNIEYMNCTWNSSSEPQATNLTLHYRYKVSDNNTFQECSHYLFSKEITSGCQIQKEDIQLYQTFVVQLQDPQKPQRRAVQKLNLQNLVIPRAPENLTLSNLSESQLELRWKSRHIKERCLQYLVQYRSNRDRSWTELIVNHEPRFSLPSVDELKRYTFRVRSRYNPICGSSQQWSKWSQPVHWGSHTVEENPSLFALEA
Description: PE binding ELISA, periplasmic extract on coated protein.
Molecule B1 returned an OD (PE binding ELISA) of 0.049 OD450 nm.

Take B2: the OD (PE binding ELISA) turned out to be 0.049 OD450 nm.

The molecule B3 displayed an OD (PE binding ELISA) of 0.048 OD450 nm.

The molecule B4 showed an OD (PE binding ELISA) of 0.05 OD450 nm.

B5 displayed an OD (PE binding ELISA) of 0.05 OD450 nm.

With B6, the OD (PE binding ELISA) was found to be 0.048 OD450 nm.

B7 gave an OD (PE binding ELISA) of 0.053 OD450 nm.

In the case of B8, the OD (PE binding ELISA) is 0.05 OD450 nm.

B9 had an OD (PE binding ELISA) of 0.045 OD450 nm.

Turning to B10, the OD (PE binding ELISA) was found to be 0.049 OD450 nm.

In the case of B11, the OD (PE binding ELISA) came to 0.048 OD450 nm.

In turn, B12 had an OD (PE binding ELISA) of 0.049 OD450 nm.

Regarding B13, the OD (PE binding ELISA) is 0.047 OD450 nm.

B14 gave an OD (PE binding ELISA) of 0.048 OD450 nm.

B15 showed an OD (PE binding ELISA) of 0.047 OD450 nm.

As for B16, the OD (PE binding ELISA) was determined as 0.049 OD450 nm.

Take B17: the OD (PE binding ELISA) is 0.049 OD450 nm.

In turn, B18 had an OD (PE binding ELISA) of 0.048 OD450 nm.

On to B19, for which the OD (PE binding ELISA) amounted to 0.052 OD450 nm.

In turn, B20 gave an OD (PE binding ELISA) of 0.047 OD450 nm.

B21 registered an OD (PE binding ELISA) of 0.049 OD450 nm.

As for B22, the OD (PE binding ELISA) was 0.049 OD450 nm.

Take B23: the OD (PE binding ELISA) stood at 0.048 OD450 nm.

The molecule B24 gave an OD (PE binding ELISA) of 0.048 OD450 nm.

The molecule B25 showed an OD (PE binding ELISA) of 0.05 OD450 nm.

B26 yielded an OD (PE binding ELISA) of 0.049 OD450 nm.

In turn, B27 displayed an OD (PE binding ELISA) of 0.047 OD450 nm.

B28 showed an OD (PE binding ELISA) of 0.049 OD450 nm.

With B29, the OD (PE binding ELISA) was determined as 0.049 OD450 nm.

Consider B30, for which the OD (PE binding ELISA) was 0.048 OD450 nm.

The record behind these values is patent publication US20240409645A1.
